The results in this text go back to publication doi:10.1101/2023.10.31.564985, “Cryo-EM structure of the Spo11 core complex bound to DNA” (bioRxiv, 2023).

First the molecules themselves.
B2: Rec102 (subunit of the purified S. cerevisiae Spo11 core complex) (natural protein)
chain: MARDITFLTVFLESCGAVNNDEAGKLLSAWTSTVRIEGPESTDSNSLYIPLLPPGMLKIKLNFKMNDRLVTEEQELFTKLREIVGSSIRFWEEQLFYQVQDVSTIENHVILSLKCTILTDAQISTFISKPRELHTHAKGYPEIYYLSELSTTVNFFSKEGNYVEISQVIPHFNEYFSSLIVSQLEFEYPMVFSMISRLRLKWQQSSLAPISYALTSNSVLLPIMLNMIAQDKSSTTAYQILCRRRGPPIQNFQIFSLPAVTYNK
notes: Rec102, S. cerevisiae; source: Sf9 cells, baculovirus coinfection with Spo11, Rec104 and Ski8; purified as the core complex (NiNTA, Anti-Flag M2, Superdex 200)

The target in test [1] is T1, Spo11 (subunit of the purified S. cerevisiae Spo11 core complex) (S. cerevisiae, UniProt P23179 1-392).
T1 construct: Spo11, S. cerevisiae; The complex was purified on NiNTA and anti-Flag resin; Surmise: the tags are on Spo11; source: Sf9 cells, baculovirus coinfection with Rec102, Rec104 and Ski8; purified as the core complex (NiNTA, Anti-Flag M2, Superdex 200)
T1 sequence: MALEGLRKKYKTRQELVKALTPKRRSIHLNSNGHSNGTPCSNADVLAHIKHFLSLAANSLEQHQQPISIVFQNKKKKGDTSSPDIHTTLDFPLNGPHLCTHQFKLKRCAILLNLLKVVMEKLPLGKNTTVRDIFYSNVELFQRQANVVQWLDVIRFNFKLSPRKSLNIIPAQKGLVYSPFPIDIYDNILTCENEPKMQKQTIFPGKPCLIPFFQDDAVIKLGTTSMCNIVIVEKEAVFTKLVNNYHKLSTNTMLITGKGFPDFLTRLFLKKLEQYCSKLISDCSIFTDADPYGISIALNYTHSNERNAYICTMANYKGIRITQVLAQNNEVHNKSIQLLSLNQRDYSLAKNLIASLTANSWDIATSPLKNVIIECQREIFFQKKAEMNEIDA
As to the kind of experiment: cryo-EM structure; core complex (~0.2 mg/ml) incubated with 23-bp hairpin DNA with a two-nucleotide 5' overhang, molar ratio 1:2, 25 mM HEPES-NaOH pH 7.5, 150 mM NaCl, 5 mM MgCl2, 2 mM DTT, 2% glycerol, 1 hr on ice; 3.7 Å. The following applies: both partners purified.

Test [2] addresses B2. Described as above. The following applies: both partners purified.

B1: Rec104 (subunit of the purified S. cerevisiae Spo11 core complex) (natural protein)
chain: MSIEEEDTNKITCTQDFLHQYFVTERVSIQFGLNNKTVKRINKDEFDKAVNCIMSWTNYPKPGLKRTASTYLLSNSFKKSATVSLPFILGDPVCMPKRVESNNNDTCLLYSDTLYDDPLIQRNDQAGDEIEDEFSFTLLRSEVNEIRPISSSSTAQILQSDYSALMYERQASNGSIFQFSSP
notes: Rec104, S. cerevisiae; source: Sf9 cells, baculovirus coinfection with Spo11, Rec102 and Ski8; purified as the core complex (NiNTA, Anti-Flag M2, Superdex 200)
In general, stoichiometry N refers to the number of molecules, sites or subunits per partner or assembly. With B1, the “stoichiometry N” value in test [1] and in test [2] was 1 throughout.
On to B2, for which, in test [1], the “stoichiometry N” value stood at 1.

B3: Ski8 (subunit of the purified S. cerevisiae Spo11 core complex) (natural protein)
chain: MSKVFIATANAGKAHDADIFSVSACNSFTVSCSGDGYLKVWDNKLLDNENPKDKSYSHFVHKSGLHHVDVLQAIERDAFELCLVATTSFSGDLLFYRITREDETKKVIFEKLDLLDSDMKKHSFWALKWGASNDRLLSHRLVATDVKGTTYIWKFHPFADESNSLTLNWSPTLELQGTVESPMTPSQFATSVDISERGLIATGFNNGTVQISELSTLRPLYNFESQHSMINNSNSIRSVKFSPQGSLLAIAHDSNSFGCITLYETEFGERIGSLSVPTHSSQASLGEFAHSSWVMSLSFNDSGETLCSAGWDGKLRFWDVKTKERITTLNMHCDDIEIEEDILAVDEHGDSLAEPGVFDVKFLKKGWRSGMGADLNESLCCVCLDRSIRWFREAGGK
notes: Ski8, WD-repeat protein, S. cerevisiae; source: Sf9 cells, baculovirus coinfection with Spo11, Rec102 and Rec104; purified as the core complex (NiNTA, Anti-Flag M2, Superdex 200)
For the molecule B3, in test [1], the “stoichiometry N” value is 1.
